Source: patent publication US20200246383A1 (REGENTS OF THE UNIVERSITY OF MINNESOTA, published 2020)

How the values were obtained:
[1] = target: T1, recombinant human dipeptidyl peptidase IV (hDPP-IV), biotinylated (human, UniProt P27487 29-766, limits assumed, biotinylated); assay: ELISA: B12 IgG 0.1 to 500 nM on biotinylated hDPP-IV captured on streptavidin-coated wells; detection with peroxidase anti-human IgG mAb; OD 450nm
T1 construct: also called human DPP-IV
Protocol: FIG. 2A-FIG. 2E show in vitro characterization of the anti-FAP monoclonal antibody B12 immunoglobulin G (IgG). FIG. 2A. B12 IgG specificity for human fibroblast activation protein alpha (hFAP) (circle), mouse fibroblast activation protein alpha (mFAP) (square), and the homologous protease human dipeptidyl peptidase IV (hDPP-IV) (triangle) was determined by enzyme-linked immunosorbent assay (ELISA). B12 IgG was serial-diluted from 500 nM to 0.1 nM and added to protein coated wells. B12 IgG binding was detected by a peroxidase conjugated […] monoclonal antibody. FIG. 2B. […] FIG. 2C. B12 IgG binding to membrane-bound FAP was analyzed by flow cytometry. […] Unstained cells (blue line) were used as a negative control. FIG. 2D. mRNA levels of hDPP-IV were investigated by quantitative RT-PCR in prostate (R1-EnzR, R1-EnzR^FAP, PC3) and colon (Caco2) cancer cells. mRNA fold change is normalized to R1-EnzR. **p 0.01. FIG. 2E.
Dilution ELISA: A MaxiSorp plate was coated and blocked as described above. 50 μL of biotinylated human FAP, murine FAP, or human DPP-IV ([…] in PBS, 1% BSA, 0.005% Tween20) was added to 8 sets of triplicate wells each. […] B12 IgG binding was detected with a 1:1000 dilution of anti-human IgG monoclonal antibody conjugated to peroxidase (sc-2769, Santa Cruz Biotechnology, Dallas, Tex.) in PBS, 1% BSA.

[2] = target: T2, human dipeptidyl peptidase IV expressed on cells (PC3 and CaCo2 cells) (human, UniProt P27487 1-766); assay: flow cytometry, Alexa Fluor 488 conjugated B12 IgG on hDPP-IV-expressing PC3 cells against unstained cells
T2 construct: whole, on cells; also called hDPP-IV-expressing cells; hDPP-IV-positive cell lines
T2 sequence (P27487 whole entry): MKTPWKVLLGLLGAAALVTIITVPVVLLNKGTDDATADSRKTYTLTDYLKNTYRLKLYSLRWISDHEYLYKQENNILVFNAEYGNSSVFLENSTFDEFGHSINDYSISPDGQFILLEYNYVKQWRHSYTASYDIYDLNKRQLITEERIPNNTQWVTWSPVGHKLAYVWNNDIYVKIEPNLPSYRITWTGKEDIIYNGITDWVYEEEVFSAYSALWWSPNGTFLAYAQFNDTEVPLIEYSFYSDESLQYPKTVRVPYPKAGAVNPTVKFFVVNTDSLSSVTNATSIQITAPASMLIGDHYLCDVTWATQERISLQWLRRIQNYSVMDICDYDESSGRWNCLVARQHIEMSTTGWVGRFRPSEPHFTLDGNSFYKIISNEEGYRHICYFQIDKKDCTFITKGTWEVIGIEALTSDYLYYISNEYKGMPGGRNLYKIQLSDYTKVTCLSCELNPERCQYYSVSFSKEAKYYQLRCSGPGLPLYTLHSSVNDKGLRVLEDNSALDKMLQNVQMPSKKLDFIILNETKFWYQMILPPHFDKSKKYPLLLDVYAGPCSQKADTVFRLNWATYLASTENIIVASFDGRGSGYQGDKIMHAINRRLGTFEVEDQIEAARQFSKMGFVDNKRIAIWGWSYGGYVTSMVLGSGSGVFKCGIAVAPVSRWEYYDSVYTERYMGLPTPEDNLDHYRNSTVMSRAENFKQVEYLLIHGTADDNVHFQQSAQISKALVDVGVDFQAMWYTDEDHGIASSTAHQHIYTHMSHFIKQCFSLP

T1 sequence (P27487 29-766 limits assumed): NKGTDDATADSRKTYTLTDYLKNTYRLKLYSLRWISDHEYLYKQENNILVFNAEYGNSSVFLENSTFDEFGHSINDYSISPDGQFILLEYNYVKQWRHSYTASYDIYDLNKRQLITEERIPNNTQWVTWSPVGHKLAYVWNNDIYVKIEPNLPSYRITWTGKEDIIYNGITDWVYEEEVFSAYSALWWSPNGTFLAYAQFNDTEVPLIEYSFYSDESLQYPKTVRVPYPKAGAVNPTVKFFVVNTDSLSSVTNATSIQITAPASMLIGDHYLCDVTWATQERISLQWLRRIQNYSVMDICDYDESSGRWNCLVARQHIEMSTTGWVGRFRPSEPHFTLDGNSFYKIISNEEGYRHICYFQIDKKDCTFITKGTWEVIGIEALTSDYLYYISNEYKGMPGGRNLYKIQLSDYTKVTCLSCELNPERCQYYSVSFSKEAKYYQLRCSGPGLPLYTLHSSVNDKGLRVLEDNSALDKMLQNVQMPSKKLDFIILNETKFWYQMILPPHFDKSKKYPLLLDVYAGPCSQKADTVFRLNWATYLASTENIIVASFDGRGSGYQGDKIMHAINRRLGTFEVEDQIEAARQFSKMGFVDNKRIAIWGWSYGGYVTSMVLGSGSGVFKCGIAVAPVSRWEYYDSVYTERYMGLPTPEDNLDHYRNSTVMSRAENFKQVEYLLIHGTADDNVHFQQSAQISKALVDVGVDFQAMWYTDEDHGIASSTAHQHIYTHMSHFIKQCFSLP

binding result [1]: no binding (tested: 500 nM)
binding result [2]: no binding (tested: 100 nM)
B1: B12 IgG (chimeric anti-FAP monoclonal antibody: murine B12 variable domains in a full-length human IgG) (antibody, V domains shown)
VH: EVMLVESGGGLVQPGGSLKLSCAASGFTFSSYGMSWVRQTPDKRLELVATINSNGGSTYYPDSVKGRFTISRDNAKNTLYLQMSSLKSEDTAMYYCARDYFDYWGQGTTLTVSS
VL: DIVITQSPSSLSASLGERVSLTCRASQEISGYLSWLQQKPDGTIKLIYAASTLDSGVPKRFSGSRSGSDYSLTISSLESEDFADYYCLQYASYPWTFGGGTKLEIKR
notes: They were cloned into pFUSEss human IgG expression vectors (Invivogen) and expressed in HEK293T cells; capture was detected with an anti-human IgG1 secondary and the isotype control is human IgG1; also called anti-FAP mAb; aFAP
